Data on one substance can be found in PMC3954883.

The test addresses chimeric avidin mutant A/A2-B I109K. Kind of test: SDS-PAGE stability assay; 55 µM acetylated protein in pH 7 buffer, with or without biotin-5-fluorescein, 20 min at 20-100°C, sample buffer without SDS, 15% gel; control boiled with 2% SDS and 0.5% β-mercaptoethanol.

Consider chimeric avidin mutant A/A2-B I109K, for which the stoichiometry N (in general, the number of molecules, sites or subunits per partner or assembly) worked out at 4.
